Reference: a protein production outcome set (Wang et al. 2014)

Experiment: label from the status in PepcDB records

Sequence	protein production
MTITDKNRLTGEADPRRTSLYGPPSMDALTERALHLARAGRALLGIVGEPGAGKSTFAEQLRARLEKERPGLAVTVSMDGFHLAQKVIEARGQAADKGTIDTFDADGFVALLRRTRAETGDTENTESTVWWPEFDRDLEDPVAGSIEVAPHHRLVIVDGNFLLSAQEPWRQVKGLLDETWFLDALPEPRRERLTRRYISYGFTPEAARAKTLGVDEDTSALIRSTVSRADLVIGEARESGGVSDCLEHHHHHH	failed
MKLNATYIKIRDKWWGLPLFLPSLILPIFAHINTFAHISSGEVFLFYLPLALMISMMMFFSWAALPGIALGIFVRKYAELGFYETLSLTANFIIIIILCWGGYRVFTPRRNNVSHGDTRLISQRIFWQIVFPATLFLILFQFAAFVGLLASRENLVGVMPFNLGTLINYQALLVGNLIGVPLCYFIIRVVRNPFYLRSYYSQLKQQVDAKVTKKEFALWLLALGALLLLLCMPLNEKSTIFSTNYTLSLLLPLMMWGAMRYGYKLISLLWAVVLMISIHSYQNYIPIYPGYTTQLTITSSSYLVFSFIVNYMAVLATRQRAVVRRIQRLAYVDPVVHLPNVRALNRALRDAPWSALCYLRIPGMEMLVKNYGIMLRIQYKQKLSHWLSPLLEPGEDVYQLSGNDLALRLNTESHQERITALDSHLKQFRFFWDGMPMQPQIGVSYCYVRSPVNHIYLLLGELNTVAELSIVTNAPENMQRRGAMYLQRELKDKVAMMNRLQQALEHNHFFLMAQPITGMRGDVYHEILLRMKGENDELISPDSFLPVAHEFGLSSSIDMWVIEHTLQFMAENRAKMPAHRFAINLSPTSVCQARFPVEVSQLLAKYQIEAWQLIFEVTESNALTNVKQAQITLQHLQELGCQIAIDDFGTGYASYARLKNVNADLLKIDGSFIRNIVSNSLDYQIVASICHLARMKKMLVVAEYVENEEIREAVLSLGIDYMQGYLIGKPQPLIDTLNEIEPIRESA	failed
MSSNMQQTINVWDPLIRIFHWSLVGFFTLAYLTEGEDEWMNIHSYAGYSILTLLVFRLLWGVIGTHHARFNHFITRPSIAWTYLKQLFSGNAKDYIGHNPAGALMIIALITSIAVAGFSGMALYATDSQGPLATSFFATWPEGALKEVHEFFANFSLFLIATHIGGVIVSSLLHKENLIRAMVTGKKQRPLIQQDERQ	failed
RGSRFTWRKECLAVMESYFNENQYPDEAKREEIANACNAVIQKPGKKLSDLERVTSLKVYNWFANRRKEIKRRANIAAILES	not failed
EEDWVLPSEVEVLESIYLDELQVIKGNGRTSPWEIYITLHPATAEDQDSQYVCFTLVLQVPAEYPHEVPQISIRNPRGLSDEQIHTILQVLGHVAKAGLGTAMLYELIEKGKEILTDNNIPHGQ	not failed
MKVTQLSSETLDRAHERFEETLAQMTVAEANTMPAPLIKSVTWLMWHTARELDLQISALNHSDPLWLSQHWTEKFALDLPDETEDWHHTPEEAAKVVVAEKQLLSDYLAASVALTKSYLDQIKEEQLSDVIDKNWTPPVTRQVRLVSAIDDAVMHSGQAVYTRRLVIGK	not failed
MGSYQLLVPPPEALSKPLSVPTRLLLGPGPSNLAPRVLAAGSLRMIGHMQKEMLQIMEEIKQGIQYVFQTRNPLTLVVSGSGHCAMETALFNLLEPGDSFLTGTNGIWGMRAAEIADRIGARVHQMIKKPGEHYTLQEVEEGLAQHKPVLLFLVHGESSTGVVQPLDGFGELCHRYQCLLLVDSVASLGGVPIYMDQQGIDIMYSSSQKVLNAPPGISLISFNDKAKYKVYSRKTKPVSFYTDITYLAKLWGCEGETRVIHHTTPVTSLYCLRESLALIAEQGLENCWRRHREATAHLHKHLQEMGLKFFVKDPEIRLPTITTVTVPAGYNWRDIVSYVLDHFSIEISGGLGPTEERVLRIGLLGYNATTENVDRVAEALREALQHCPKNKL	not failed
MEFEVEYDILVIVLVAFYILAATRIAHVIGLPPGVVEIIMGAMLAFWGVKSTEVLTLLAAIGANLLLFMAGSEIDLALLRSILPQAVIVALVSALAPLALTALLHVYLGLSLTSSLVILASLSATSVALTYLLLSSYRLVRSRLGQLALASAMLLDLSGMIMLNIATASISPSLAFYIVILLAALLLYPLLPRLGGAPFEAEIRLITMTVIILGFLSDFVGVHSVLTSFILGVIASETVRTRVQLREKLESLATGFFTPFFFIASGMSIDPGIPLHYVALALAGGVALALARTYTVYFYFRLTGSSRRSSLIAASSTAMLLTVTIIAASVGFQLGLLDSLMYSVLVWIVVGTILGSFALVKMR	failed
